Assay results taken from US20240241135A1 (SENBOLL BIOTECHNOLOGY, published 2024).

Legend:
[1] = target: T1, recombinant human regenerating islet-derived protein 1α (REG1A) (human, UniProt P05451 23-166, limits assumed); assay: sandwich ELISA; capture 11D11B11; REG1A 0 ng/mL (blank)
T1 construct: also called recombinant human REG1A; recombinant REG1A
T1 sequence (looked up): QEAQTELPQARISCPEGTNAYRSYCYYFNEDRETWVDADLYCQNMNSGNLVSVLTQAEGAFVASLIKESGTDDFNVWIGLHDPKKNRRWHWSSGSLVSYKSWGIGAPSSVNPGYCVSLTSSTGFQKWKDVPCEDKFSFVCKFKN
Summary of the method: (§1)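 In this sandwich ELISA, the capture monoclonal antibody was coated in PBS overnight at 4 °C, and blocking followed for 2 h at 37 °C. Recombinant human REG1A in basic diluent was incubated for 1 h at 37 °C, then a horseradish peroxidase-based detection antibody system and TMB substrate were applied for 15 min at 37 °C before the reaction was stopped with 0.2M sulfuric acid. The OD value is the dual-wavelength corrected absorbance. It equals the absorbance at 450 nm minus the absorbance at 620/630 nm.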

[2] = target: T1, recombinant human regenerating …; assay: sandwich ELISA; capture 4H8F1; REG1A 11.11 ng/mL
Summary of the method: as §1

[3] = target: T1, recombinant human regenerating …; assay: sandwich ELISA; capture 11D11B11; REG1A 11.11 ng/mL
Summary of the method: as §1

[4] = target: T1, recombinant human regenerating …; assay: sandwich ELISA; capture 4H8F1; REG1A 1.23 ng/mL
Summary of the method: as §1

[5] = target: T1, recombinant human regenerating …; assay: sandwich ELISA; capture 11D11B11; REG1A 100.00 ng/mL
Summary of the method: as §1

[6] = target: T1, recombinant human regenerating …; assay: sandwich ELISA; capture 12F12A10; REG1A 33.33 ng/mL
Summary of the method: as §1

[7] = target: T1, recombinant human regenerating …; assay: sandwich ELISA; capture 25F3C4; REG1A 0 ng/mL (blank)
Summary of the method: as §1

[8] = target: T1, recombinant human regenerating …; assay: sandwich ELISA; capture 21B11D2; REG1A 11.11 ng/mL
Summary of the method: as §1

[9] = target: T1, recombinant human regenerating …; assay: sandwich ELISA; capture 21B11D2; REG1A 3.70 ng/mL
Summary of the method: as §1

[10] = target: T1, recombinant human regenerating …; assay: sandwich ELISA; capture 12F12A10; REG1A 0 ng/mL (blank)
Summary of the method: as §1

[11] = target: T1, recombinant human regenerating …; assay: sandwich ELISA; capture 21B11D2; REG1A 33.33 ng/mL
Summary of the method: as §1

[12] = target: T1, recombinant human regenerating …; assay: sandwich ELISA; capture 21B11D2; REG1A 0 ng/mL (blank)
Summary of the method: as §1

[13] = target: T1, recombinant human regenerating …; assay: sandwich ELISA; capture 25F3C4; REG1A 1.23 ng/mL
Summary of the method: as §1

[14] = target: T1, recombinant human regenerating …; assay: sandwich ELISA; capture 25F3C4; REG1A 11.11 ng/mL
Summary of the method: as §1

[15] = target: T1, recombinant human regenerating …; assay: sandwich ELISA; capture 25F3C4; REG1A 33.33 ng/mL
Summary of the method: as §1

[16] = target: T1, recombinant human regenerating …; assay: sandwich ELISA; capture 12F12A10; REG1A 3.70 ng/mL
Summary of the method: as §1

[17] = target: T1, recombinant human regenerating …; assay: sandwich ELISA; capture 12F12A10; REG1A 100.00 ng/mL
Summary of the method: as §1

[18] = target: T1, recombinant human regenerating …; assay: sandwich ELISA; capture 4H8F1; REG1A 0 ng/mL (blank)
Summary of the method: as §1

[19] = target: T1, recombinant human regenerating …; assay: sandwich ELISA; capture 12F12A10; REG1A 1.23 ng/mL
Summary of the method: as §1

[20] = target: T1, recombinant human regenerating …; assay: sandwich ELISA; capture 4H8F1; REG1A 3.70 ng/mL
Summary of the method: as §1

[21] = target: T1, recombinant human regenerating …; assay: sandwich ELISA; capture 11D11B11; REG1A 1.23 ng/mL
Summary of the method: as §1

[22] = target: T1, recombinant human regenerating …; assay: sandwich ELISA; capture 25F3C4; REG1A 100.00 ng/mL
Summary of the method: as §1

[23] = target: T1, recombinant human regenerating …; assay: sandwich ELISA; capture 12F12A10; REG1A 11.11 ng/mL
Summary of the method: as §1

[24] = target: T1, recombinant human regenerating …; assay: sandwich ELISA; capture 25F3C4; REG1A 3.70 ng/mL
Summary of the method: as §1

[25] = target: T1, recombinant human regenerating …; assay: sandwich ELISA; capture 11D11B11; REG1A 3.70 ng/mL
Summary of the method: as §1

[26] = target: T1, recombinant human regenerating …; assay: sandwich ELISA; capture 11D11B11; REG1A 33.33 ng/mL
Summary of the method: as §1

[27] = target: T1, recombinant human regenerating …; assay: sandwich ELISA; capture 4H8F1; REG1A 33.33 ng/mL
Summary of the method: as §1

[28] = target: T1, recombinant human regenerating …; assay: sandwich ELISA; capture 21B11D2; REG1A 1.23 ng/mL
Summary of the method: as §1

[29] = target: T1, recombinant human regenerating …; assay: sandwich ELISA; capture 21B11D2; REG1A 100.00 ng/mL
Summary of the method: as §1

[30] = target: T1, recombinant human regenerating …; assay: sandwich ELISA; capture 4H8F1; REG1A 100.00 ng/mL
Summary of the method: as §1

B1: antibody 21B11D2 (antibody, mouse IgG2b, kappa, V domains shown)
VH: QAQLQQSGAELVRPGASVTLSCKASGYIFTDYEMHWVKQTPVHGLEWIGAIDPETGGTAYNQKFKGKARLTADKSSSTAYMELRSLTSEDSAVYYCTIYYTNHFDYWGQGTTLTVSS
VL: DVVMTQTPLSLPVSLGDQASISCRSSQSLVYSNGDTYLYWYLQKPGQSPKLLIYKVSNRFSGVPDRFSGSGSGTDFTLKISRVEAEDLGVYFCSQSTHVPLTFGAGTKLELKR
notes: Mouse monoclonal from hybridoma, stated mouse IgG1/Kappa; Used unlabelled as capture and biotin-labelled as detection antibody; also called 21B11D2-biotin
B1 was tested, and the OD value [1] was 0.068 OD, the OD value [2] was 0.07 OD and the OD value [3] was 0.066 OD. For the same binder, the OD value [4] was 0.072 OD, the OD value [5] was 0.065 OD and the OD value [6] was 3.21 OD. The OD value [7] was 0.068 OD, the OD value [8] was 0.069 OD and the OD value [9] was 0.069 OD. For the same binder, the OD value [10] was 0.068 OD, the OD value [11] was 0.071 OD and the OD value [12] was 0.073 OD. For the same binder, the OD value [13] was 0.066 OD, the OD value [14] was 0.069 OD and the OD value [15] was 0.071 OD. It also gave an OD value [16] of 2.38 OD, an OD value [17] of 3.35 OD and an OD value [18] of 0.069 OD. For the same binder, the OD value [19] was 1.18 OD, the OD value [20] was 0.068 OD and the OD value [21] was 0.07 OD. For the same binder, the OD value [22] was 0.073 OD, the OD value [23] was 2.89 OD and the OD value [24] was 0.068 OD. For the same binder, the OD value [25] was 0.06 OD, the OD value [26] was 0.063 OD and the OD value [27] was 0.073 OD. For the same binder, the OD value [28] was 0.066 OD, the OD value [29] was 0.068 OD and the OD value [30] was 0.08 OD.
